How the values were obtained:
[1] = molecular target: T1, ST2 on the effector cells (KU812, KU812/NF-κB-1#, HUVEC, HMC-1) (human, UniProt Q01638 19-556); assay: cell-based or functional assay
T1 sequence (looked up): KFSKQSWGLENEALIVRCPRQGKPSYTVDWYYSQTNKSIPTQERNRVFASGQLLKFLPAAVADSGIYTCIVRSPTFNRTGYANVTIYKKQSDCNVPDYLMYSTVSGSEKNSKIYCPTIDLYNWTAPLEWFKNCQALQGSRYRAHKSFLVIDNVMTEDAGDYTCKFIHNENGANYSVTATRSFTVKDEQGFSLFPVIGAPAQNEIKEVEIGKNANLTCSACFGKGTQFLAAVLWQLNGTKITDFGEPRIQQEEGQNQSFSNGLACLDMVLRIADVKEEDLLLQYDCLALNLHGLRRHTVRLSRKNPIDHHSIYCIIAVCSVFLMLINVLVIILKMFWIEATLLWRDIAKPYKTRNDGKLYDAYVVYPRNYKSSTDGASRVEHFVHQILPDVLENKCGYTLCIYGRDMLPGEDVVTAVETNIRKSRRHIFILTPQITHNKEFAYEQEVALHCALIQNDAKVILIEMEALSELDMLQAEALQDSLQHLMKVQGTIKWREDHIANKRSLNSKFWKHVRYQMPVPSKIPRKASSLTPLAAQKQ

[2] = molecular target: T1, ST2 on the effector cells (KU812, …); assay: cell-based or functional assay; remark: listed apart in the source
[3] = molecular target: T1, ST2 on the effector cells (KU812, …); assay: cell-based or functional assay; remark: listed apart in the source
[4] = molecular target: T1, ST2 on the effector cells (KU812, …); assay: cell-based or functional assay; remark: listed apart in the source
[5] = molecular target: T1, ST2 on the effector cells (KU812, …); assay: cell-based or functional assay; remark: listed apart in the source
[6] = molecular target: T1, ST2 on the effector cells (KU812, …); assay: cell-based or functional assay; remark: listed apart in the source
[7] = molecular target: T2, Human ST2-his (human, UniProt Q01638-2 19-328, limits assumed); assay: SPR Biacore X100, ratio of kd at pH 5.5 to kd at pH 7.4
T2 construct: Expressed in CHO-K1; The printed range starts at Met1; also called human ST2 fused with a 6-histidine tag at the C-terminus
T2 sequence: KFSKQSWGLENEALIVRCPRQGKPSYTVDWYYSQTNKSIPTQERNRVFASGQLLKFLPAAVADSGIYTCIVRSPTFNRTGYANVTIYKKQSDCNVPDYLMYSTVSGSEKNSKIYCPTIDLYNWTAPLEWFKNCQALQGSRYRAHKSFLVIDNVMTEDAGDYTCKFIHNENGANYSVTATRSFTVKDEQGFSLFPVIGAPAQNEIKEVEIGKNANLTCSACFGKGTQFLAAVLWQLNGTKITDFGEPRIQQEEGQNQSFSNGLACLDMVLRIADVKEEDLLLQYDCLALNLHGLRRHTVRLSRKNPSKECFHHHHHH
Summary of the method: (§1)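 Antibody (2 µg/mL) captured 60 s on protein A; human ST2-his injected at six 2-fold dilutions from 20 nM, association 180 s, dissociation 700 s. Kinetics fitted to 1:1 binding model; glycine pH 2.0 regeneration.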

[8] = molecular target: T2, Human ST2-his; assay: SPR Biacore X100, antibody captured on protein A chip, human ST2-his injected, pH 7.4
Summary of the method: as §1

[9] = molecular target: T2, Human ST2-his; assay: SPR Biacore X100, antibody captured on protein A chip, human ST2-his injected, pH 7.4; pH 7.4
Protocol: The experiment on the interaction between the anti-human ST2 antibodies and human ST2-his was performed using Biacore X100.
Each anti-human ST2 antibody was diluted to 2 µg/mL and captured on the surface of a protein A chip for a capture time of 60 s. Following the antibody capture, a solution of human ST2-his (2-fold gradient dilution from a starting concentration of 20 nM, to obtain 6 concentrations in total) was injected. Association was monitored for 180 s and dissociation was monitored for 700 s, and the sensor surface was regenerated by injecting a solution of glycine at pH 2.0. Kinetic data were analyzed using a simple 1:1 binding model.

[10] = molecular target: T2, Human ST2-his; assay: SPR Biacore X100, antibody captured on protein A chip, human ST2-his injected, dissociation at pH 5.5
Summary of the method: as §1

B1: Control antibody CNTO7160 (antibody, human IgG4 S228P, kappa, V domains shown)
VH: EVQLLESGGGLVQPGGSLRLSCAASGFTFSIYDMIWVRQAPGKGLEWVSSIRGEGGGTYYADSVKGRFTISRDNSKNTLYLQMNSLRAEDTAVYYCARDPWSTEGSFFVLDYWGQGTLVTVSS
VL: EIVLTQSPATLSLSPGERATLSCRASQSVDDDLAWYQQKPGQAPRLLIYDASNRATGIPARFSGSGSGTDFTLTISSLEPEDFAVYYCQQYITAPLTFGQGTKVEIKR
notes: Known anti-ST2 control antibody
Question: For B1, which “Maximum inhibition rate, KU812-IL5 production by IL-33” value [1] is on record?
Answer: 97.5%

Question: What about the “IC50, inhibition of activation of KU812-NF-κB reporter gene by IL33” value [2] of the same binder?
Answer: 0.2 µg/mL

Question: What about the “Maximum inhibition rate, KU812-NF-κB reporter gene” value [2] of the same binder?
Answer: 88.2%

Question: What about the “IC50, inhibition of KU812-IL5 production promoted by oxidized IL33” value [3] of the same binder?
Answer: 0.0221 µg/mL

Question: What about the “Maximum inhibition rate, KU812-IL5 production by oxidized IL33” value [3] of the same binder?
Answer: 98.9%

Question: And the “Relative activity, KU812-IL5 production by oxidized IL33” value [3]?
Answer: 100%

Question: And the “IC50, inhibition of KU812-IL5 production promoted by reduced IL33” value [4]?
Answer: 1.47 µg/mL

Question: And the “Maximum inhibition rate, KU812-IL5 production by reduced IL33” value [4]?
Answer: 97.3%

Question: And the “Relative activity, KU812-IL5 production by reduced IL33” value [4]?
Answer: 100%

Question: What about the “IC50, inhibition of HUVEC-IL6 production promoted by IL33” value [5] of the same binder?
Answer: 2.73 µg/mL

Question: What about the “Maximum inhibition rate, HUVEC-IL6 production by IL33” value [5] of the same binder?
Answer: 66.6%

Question: What about the “Relative activity, HUVEC-IL6 production by IL33” value [5] of the same binder?
Answer: 100%

Question: And the “IC50, inhibition of HMC-1 IL8 production promoted by IL33” value [6]?
Answer: 0.101 µg/mL

Question: And the “Maximum inhibition rate, HMC-1 IL8 production by IL33” value [6]?
Answer: 82.3%

Question: And the “kd ratio of pH 5.5/pH 7.4” value [7]?
Answer: 1.53

Question: What about the koff [8] of the same binder?
Answer: 0.000175 s⁻¹

Question: What about the kon [8] of the same binder?
Answer: 763000 M⁻¹ s⁻¹

Question: What about the Kd [9] of the same binder?
Answer: 0.229 nM

Question: And the Kd [10]?
Answer: 0.395 nM

Question: And the koff [10]?
Answer: 0.000267 s⁻¹

Question: What about the kon [10] of the same binder?
Answer: 676000 M⁻¹ s⁻¹
